This note sets out measurements from IntAct's records for PubMed 23871486.

To fix the notation:
B1: Cytotoxic and regulatory T-cell molecule (Homo sapiens), O95727-1 (parent)
chain: MWWRVLSLLAWFPLQEASLTNHTETITVEEGQTLTLKCVTSLRKNSSLQWLTPSGFTIFLNEYPALKNSKYQLLHHSANQLSITVPNVTLQDEGVYKCLHYSDSVSTKEVKVIVLATPFKPILEASVIRKQNGEEHVVLMCSTMRSKPPPQITWLLGNSMEVSGGTLHEFETDGKKCNTTSTLIIHTYGKNSTVDCIIRHRGLQGRKLVAPFRFEDLVTDEETASDALERNSLSSQDPQQPTSTVSVTEDSSTSEIDKEEKEQTTQDPDLTTEANPQYLGLARKKSGILLLTLVSFLIFILFIIVQLFIMKLRKAHVIWKKENEVSEHTLESYRSRSNNEETSSEEKNGQSSHPMRCMNYITKLYSEAKTKRKENVQHSKLEEKHIQVPESIV
partner: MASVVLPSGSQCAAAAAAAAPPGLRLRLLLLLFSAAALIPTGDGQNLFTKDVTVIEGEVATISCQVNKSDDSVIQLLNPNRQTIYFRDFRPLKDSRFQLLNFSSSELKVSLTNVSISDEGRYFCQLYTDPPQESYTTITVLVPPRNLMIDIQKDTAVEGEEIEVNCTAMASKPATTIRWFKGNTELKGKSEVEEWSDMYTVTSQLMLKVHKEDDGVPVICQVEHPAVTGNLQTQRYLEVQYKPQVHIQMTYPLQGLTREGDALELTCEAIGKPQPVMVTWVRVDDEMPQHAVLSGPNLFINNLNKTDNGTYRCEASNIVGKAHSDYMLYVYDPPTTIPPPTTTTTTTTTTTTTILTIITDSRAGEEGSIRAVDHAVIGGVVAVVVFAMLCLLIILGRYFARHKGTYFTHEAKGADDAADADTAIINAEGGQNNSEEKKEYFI

The variants in the assay derive from B1. The conditions noted are these: with cadm1_human CADM1, Q9BY67.
With MWWRVLSLLAWFPLQEASLTNHTETITVEEGQTLTLKCVTSLRKNSSLQWLTPSGFTIFLNEYPALANSKYQLLHHSANQLSITVPNVTLQDEGVYKCLHYSDSVSTKEVKVIVLATPFKPILEASVIRKQNGEEHVVLMCSTMRSKPPPQITWLLGNSMEVSGGTLHEFETDGKKCNTTSTLIIHTYGKNSTVDCIIRHRGLQGRKLVAPFRFEDLVTDEETASDALERNSLSSQDPQQPTSTVSVTEDSSTSEIDKEEKEQTTQDPDLTTEANPQYLGLARKKSGILLLTLVSFLIFILFIIVQLFIMKLRKAHVIWKKENEVSEHTLESYRSRSNNEETSSEEKNGQSSHPMRCMNYITKLYSEAKTKRKENVQHSKLEEKHIQVPESIV [K67A], the “effect of a mutation on the interaction” value was “decreasing interaction strength”. The entry for MWWRVLSLLAWFPLQEASLTNHTETITVEEGQTLTLKCVTSLRKNSSLQWLTPSGATIFLNEYPALKNSKYQLLHHSANQLSITVPNVTLQDEGVYKCLHYSDSVSTKEVKVIVLATPFKPILEASVIRKQNGEEHVVLMCSTMRSKPPPQITWLLGNSMEVSGGTLHEFETDGKKCNTTSTLIIHTYGKNSTVDCIIRHRGLQGRKLVAPFRFEDLVTDEETASDALERNSLSSQDPQQPTSTVSVTEDSSTSEIDKEEKEQTTQDPDLTTEANPQYLGLARKKSGILLLTLVSFLIFILFIIVQLFIMKLRKAHVIWKKENEVSEHTLESYRSRSNNEETSSEEKNGQSSHPMRCMNYITKLYSEAKTKRKENVQHSKLEEKHIQVPESIV [F56A] is “decreasing interaction strength”. The entry for MWWRVLSLLAWFPLQEASLTNHTETITVEEGQTLTLKCVTSLRKNSSLQWLTPSGFAIFLNEYPALKNSKYQLLHHSANQLSITVPNVTLQDEGVYKCLHYSDSVSTKEVKVIVLATPFKPILEASVIRKQNGEEHVVLMCSTMRSKPPPQITWLLGNSMEVSGGTLHEFETDGKKCNTTSTLIIHTYGKNSTVDCIIRHRGLQGRKLVAPFRFEDLVTDEETASDALERNSLSSQDPQQPTSTVSVTEDSSTSEIDKEEKEQTTQDPDLTTEANPQYLGLARKKSGILLLTLVSFLIFILFIIVQLFIMKLRKAHVIWKKENEVSEHTLESYRSRSNNEETSSEEKNGQSSHPMRCMNYITKLYSEAKTKRKENVQHSKLEEKHIQVPESIV [T57A] is “decreasing interaction strength”; for MWWRVLSLLAWFPLQEASLTNHTETITVEEGQTLTLKCVTSLRKNSSLQWLTPSGFTIFLNEYPALKNSKYQLLHHSANQLSITVPNVTLQDEGVYKCLHASDSVSTKEVKVIVLATPFKPILEASVIRKQNGEEHVVLMCSTMRSKPPPQITWLLGNSMEVSGGTLHEFETDGKKCNTTSTLIIHTYGKNSTVDCIIRHRGLQGRKLVAPFRFEDLVTDEETASDALERNSLSSQDPQQPTSTVSVTEDSSTSEIDKEEKEQTTQDPDLTTEANPQYLGLARKKSGILLLTLVSFLIFILFIIVQLFIMKLRKAHVIWKKENEVSEHTLESYRSRSNNEETSSEEKNGQSSHPMRCMNYITKLYSEAKTKRKENVQHSKLEEKHIQVPESIV [Y101A] it is “decreasing interaction strength”.

In the case of MWWRVLSLLAWFPLQEASLTNHTETITVEEGQTLTLKCVTSLRKNSSLQWLTPSGAAIFLNEYPALANSKYQLLHHSANQLSITVPNVTLQDEGVYKCLHASDSVSTKEVKVIVLATPFKPILEASVIRKQNGEEHVVLMCSTMRSKPPPQITWLLGNSMEVSGGTLHEFETDGKKCNTTSTLIIHTYGKNSTVDCIIRHRGLQGRKLVAPFRFEDLVTDEETASDALERNSLSSQDPQQPTSTVSVTEDSSTSEIDKEEKEQTTQDPDLTTEANPQYLGLARKKSGILLLTLVSFLIFILFIIVQLFIMKLRKAHVIWKKENEVSEHTLESYRSRSNNEETSSEEKNGQSSHPMRCMNYITKLYSEAKTKRKENVQHSKLEEKHIQVPESIV [F56A;T57A;K67A;Y101A], the “effect of a mutation on the interaction” value was “decreasing interaction strength”.
